This is an account of results in patent publication US20200040085A1 (Chugai, published 2020).

The target of experiment [1] is T1, recombinant HLA-DQ8/gliadin peptide (human).
T1 chain 1: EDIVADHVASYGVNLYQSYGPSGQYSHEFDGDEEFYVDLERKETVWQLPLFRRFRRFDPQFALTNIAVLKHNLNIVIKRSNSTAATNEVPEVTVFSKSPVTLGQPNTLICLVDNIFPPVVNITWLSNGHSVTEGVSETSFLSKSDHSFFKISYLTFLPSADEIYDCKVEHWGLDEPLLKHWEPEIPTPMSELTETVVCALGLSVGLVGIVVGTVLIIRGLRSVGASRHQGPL
T1 chain 2: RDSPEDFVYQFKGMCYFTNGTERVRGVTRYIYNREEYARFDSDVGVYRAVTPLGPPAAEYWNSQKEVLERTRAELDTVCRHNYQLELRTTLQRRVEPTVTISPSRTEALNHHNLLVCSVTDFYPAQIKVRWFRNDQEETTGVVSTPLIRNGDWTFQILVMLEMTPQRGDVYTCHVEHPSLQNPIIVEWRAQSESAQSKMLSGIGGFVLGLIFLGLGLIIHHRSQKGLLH
In words: bead-based flow cytometry: HLA-DQ8/gliadin peptide on beads, antibody titrated, blocking of SP3.4 TCR-PE binding [panel DQ8/SP3.4 TCR neutralization]. The protocol:
Streptavidin-coated yellow particles (Spherotech, SVFB-2552-6K) were incubated in blocking buffer (2% BSA in PBS) for 30 minutes with shaking at room temperature. After centrifugation and aspiration of the supernatant, 0.167 micro g/mL of soluble […] was then added as 1.2E+4 beads/micro L solution and immobilized for 60 minutes with shaking at room temperature in 96 well plates (Sigma Aldrich, Cat No. M2686). […] The final concentration of HLA-DQ8/gliadin peptide was 0.075 micro g/mL. The plates were washed with blocking buffer, and serially diluted anti-HLA-DQ2.5/8 antibodies were added and incubated for 60 minutes with shaking at room temperature. […] Data acquisition was performed on LSR Fortessa (Becton Dickinson), followed by analysis using the FlowJo software (Tree Star) and the GraphPad Prism software (GraphPad).
(A flow cytometer gives signals particle by particle.)

Experiment [2] addresses T2, cynomolgus monkey MHC-DQ allele #1 (MHC DQA1*M2-1, MHC DQB1*M2-1) on Ba/F3 cells (cynomolgus monkey).
T2 construct: also called Ba/F3-cynoDQ C1; cynoDQ C1
T2 MHC II alpha: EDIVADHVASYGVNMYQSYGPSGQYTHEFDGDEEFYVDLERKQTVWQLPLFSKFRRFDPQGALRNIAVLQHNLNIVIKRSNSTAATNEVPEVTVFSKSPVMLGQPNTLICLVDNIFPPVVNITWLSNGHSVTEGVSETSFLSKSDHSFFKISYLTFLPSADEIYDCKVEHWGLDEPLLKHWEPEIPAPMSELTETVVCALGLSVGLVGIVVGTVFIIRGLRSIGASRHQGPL
T2 MHC II beta: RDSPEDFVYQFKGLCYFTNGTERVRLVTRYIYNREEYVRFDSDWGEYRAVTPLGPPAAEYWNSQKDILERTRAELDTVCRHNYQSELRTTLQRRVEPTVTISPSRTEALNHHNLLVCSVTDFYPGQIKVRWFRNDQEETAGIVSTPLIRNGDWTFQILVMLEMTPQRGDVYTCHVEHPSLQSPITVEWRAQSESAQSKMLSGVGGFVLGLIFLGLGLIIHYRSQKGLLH
In words: FACS on Ba/F3-cynoDQ C1 cells, PE-labelled anti-human IgG secondary [panel Ba/F3-cynoDQ C1]. The protocol:
(§1) Binding of antiHLA-DQ2.5/8 antibodies to HLA-DQ2.5-expressing Ba/F3 cells (Ba/F3-HLA-DQ2.5), Ba/F3-HLA-DQ8, Ba/F3-HLA-DR, Ba/F3-HLA-DP, Ba/F3-cynoDQ C1, Ba/F3-cynoDQ C2, and Ba/F3-cynoDQ C3 was tested.
(§2) Anti-HLA-DQ2.5/8 antibodies were incubated with each cell line for 30 minutes at room temperature and washed with FACS buffer (2% FBS, 2 mM EDTA in PBS). Goat F(ab′)2 anti-Human IgG, Mouse ads-PE (Southern Biotech, Cat. 2043-09) was then added and incubated for 20 minutes at 4 degrees C. and washed with FACS buffer. Data acquisition was performed on an FACS Verse (Becton Dickinson), followed by analysis using the FlowJo software (Tree Star) and the GraphPad Prism software (GraphPad).

For experiment [3], the target named is T1, recombinant HLA-DQ8/gliadin peptide. The experiment can be described thus: SPR Biacore T200, 37 C, pH 7.4; antibody captured by anti-human Fc, pMHC injected; 1:1 model. The protocol:
The affinity of the anti-HLA-DQ2.5/8 antibodies for binding to human HLA-DQ2.5/gliadin peptide and HLA-DQ8/gliadin peptide at pH 7.4 was determined at 37 degrees C. using the Biacore T200 instrument (GE Healthcare). Anti-human Fc (GE Healthcare) was immobilized onto all flow cells of a CM4 sensor chip using an amine coupling kit (GE Healthcare). All antibodies and analytes were prepared in ACES, pH 7.4 containing 20 mM ACES, 150 mM NaCl, 0.05% Tween 20, 0.005% NaN₃. Each antibody was captured onto the sensor surface by anti-human Fc. Antibody capture levels were aimed at 200 resonance units (RUs). A recombinant human HLA-DQ2.5/gliadin peptide was injected at […] prepared by four-fold serial dilution, followed by dissociation, whereas a recombinant human HLA-DQ8/gliadin peptide was injected at 50 to 200 nM prepared by four-fold serial dilution, followed by dissociation. The sensor surface was regenerated each cycle with 3M MgCl₂. Binding affinity was determined by processing and fitting the data to a 1:1 binding model using the Biacore T200 Evaluation software, version 2.0 (GE Healthcare). A commercially available antibody (SPV-L3) was tested as comparison.
In general terms: In SPR one partner is held on a chip, and binding of the other changes the refractive index at the surface.

Experiment [4] deals with T3, HLA-DQ2.5 (HLA-DQA1*0501, HLA-DQB1*0201) on Ba/F3 cells (human, UniProt P01909 24-216, limits assumed).
T3 construct: whole, on cells; Expressed from cDNA in mouse Ba/F3 cells; also called Ba/F3-HLA-DQ2.5
In words: FACS on Ba/F3-HLA-DQ2.5 cells. The protocol:
as §1, §2

Experiment [5] concerns the target T4, HLA-DQ8 (HLA-DQA1*0301, HLA-DQB1*0302) on Ba/F3 cells (human, UniProt P01909 24-216; P01920 33-230, limits assumed).
T4 construct: whole, on cells; Expressed from cDNA in mouse Ba/F3 cells; also called Ba/F3-HLA-DQ8
T4 MHC II alpha: not shown
T4 MHC II beta: not shown
In words: FACS on Ba/F3-HLA-DQ8 cells. The protocol: as §1, §2

The target in experiment [6] is complex of the invariant chain and HLA-DQ on Raji cells (UniProt P04233 1-296). The experiment can be described thus: cell-based or functional assay.
complex of the invariant chain and HLA-DQ on Raji cells, sequence (P04233 whole entry, change not shown, one chain of several): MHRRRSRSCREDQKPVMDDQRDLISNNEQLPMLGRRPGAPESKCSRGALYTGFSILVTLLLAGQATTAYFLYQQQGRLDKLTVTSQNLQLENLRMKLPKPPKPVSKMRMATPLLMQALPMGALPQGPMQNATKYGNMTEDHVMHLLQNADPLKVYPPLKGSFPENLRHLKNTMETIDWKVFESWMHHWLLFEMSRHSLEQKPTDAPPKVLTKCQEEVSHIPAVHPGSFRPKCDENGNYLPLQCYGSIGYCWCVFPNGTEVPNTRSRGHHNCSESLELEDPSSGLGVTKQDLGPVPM

Broadly, the Kd is the concentration at which binding is half-saturated. For orientation: koff means the rate constant with which the complex falls apart. What is called kon is a measure of how fast the partners come together.

B1: DQN0157 (antibody, human IgG1, kappa, V domains shown)
VH: QSLEESGGDLVKPGASLTLTCTASGFSFSSSYYMCWVRQAPGKGLEWIACIYTGSSGSTYYPSWAKGRFTISKTSSTTVTLQMTSLTAADTATYFCARVRAGSGYYYFNLWGPGTLVTVSS
VL: DIVMTQTPSSVSAAVGGTVTIKCQASQTIYSGLAWYQQKPGQPPKLLIYDASDLASGVPSRFSGSGSGTEFTLAISGVQCDDAATYYCHGDYYGGSGTFFWTFGGGTKVEIKR
notes: Rabbit variable regions with F1332m and hkOMC constant regions; also called DQN0157cc
For the molecule B1, the “IC50 (read off the curve)” value in experiment [1] is around 0.1 µg/mL. The binding result in experiment [2] is on record as “no binding”. Also, in experiment [3], the dissociation constant (Kd) was determined as 22.6 nM, the dissociation rate constant (koff) was determined as 0.0033 s⁻¹ and the kon is 146000 M⁻¹ s⁻¹.

B2: DQN0100 (antibody, human IgG1, kappa, V domains shown)
VH: QQQLEESGGGLVKPGASLTLTCKGSGFSFTSGYWICWVRQAPGKGLEWIGCIYTGSSGSTYYASWAKGRFTISRSSTTVTLQMTSLTVADTATYFCAGDPSGASSGWDNLWGPGTLVTVSS
VL: AFELTQTPSSVEAAVGGTVTIKCQASQTIVSWLAWYQQKPGQRPKLLILYASNLASGVSSRFRGSGSGTDYTLTISDLECDDAATYYCQSYYFSTSSPDMYAFGGGTKVEIKR
notes: Rabbit variable regions with F1332m and hkOMC constant regions; also called DQN0100aa
In the case of B2, in experiment [1], the “IC50 (read off the curve)” value is around 0.1 µg/mL. In experiment [3], the dissociation constant (Kd) came to 1.94 nM, the koff came out at 0.000458 s⁻¹ and the on-rate (kon) is 236000 M⁻¹ s⁻¹.

B3: DQN0016 (antibody, human IgG1, kappa, V domains shown)
VH: QSLEESGGDLVKPGASLTLTCTASGFSFSSRYWMCWVRQAPGKGLEWIACIDAGSSGITYYASWANGRFTISKTSSTTVTLQMTSLTAADTATYFCARDAWSTTDGWNTFNLWGPGTLVTVSS
VL: DVVMTQTPASVSAAVGGTVTIKCQASQSIGSNLNWYQQKPGQSPKLLIYSASTLASGVPSRFKGSGSGTEYTLTISNLECADAATYYCQSYYYTGSSAVNNFGGGTKVEIKR
notes: Rabbit B-cell derived variable regions recombined with F1332m heavy and hkOMC light constant regions; expressed in FreeStyle 293-F cells; also called DQN0016cc
In the case of B3, the “IC50 (read off the curve)” value in experiment [1] is around 0.2 µg/mL. Moreover, the Kd in experiment [3] was determined as 151 nM.

B4: DQN0092 (antibody, human IgG1, kappa, V domains shown)
VH: QSVEESGGRLVTPGTPLTLTCTVSGFSLSSYYISWVRQAPGKGLEWIGIIYTDGVTDYPNWAKGRFTISKTSTTVDLKITSPTTEDTATYFCARDAASVYGCGYFDLWGPGTLVTVSS
VL: TFKLTQTPASVEAAVGGTVTIKCQASESNGNALAWYQQKPGQPPKLLIYRAFTLASGVPSRLKGSGSGTQFALTISDLECADAATYYCQTYYGSNTDFNAFGGGTKVEIKR
notes: Rabbit variable regions with F1332m and hkOMC constant regions; also called DQN0092hh
B4: in experiment [4], the binding result is “binds”. In addition, the binding result in experiment [2] was “no binding”. Further, in experiment [3], the Kd is 7.28 nM, the koff is 0.00122 s⁻¹ and the kon was 168000 M⁻¹ s⁻¹. Further, the binding result in experiment [5] was “binds”.

B5: DQN0139 (antibody, human IgG1, kappa, V domains shown)
VH: QSLEESGGRLVTPGTALTLTCTVSGFSLSSYAMGWVRQAPGKGLEYIGWTSPGDSAYYASWTKGRFTISRTSTTVELKITSPTTEDTATYFCARDAAYIGHWAFNLWGPGTLVTVSS
VL: DVVMTQTPASVSAPVGGTVTINCQASESIYSNLAWYQQKPGQPPKLLIYGASTLESGVPSRVKGSGYGTQFTLTISDLECADAATYYCQQYYGSSSTAFTFGGGTKVEIKR
notes: also called DQN0139bb
With B5, the “IC50 (read off the curve)” value in experiment [1] was around 0.3 µg/mL. Moreover, the Kd in experiment [3] is 11.3 nM.

B6: DQN0177 (antibody, human IgG1, kappa, V domains shown)
VH: QSVEESGGRLVTPGTPLTLTCTVSGFSLSSYAMSWVRQAPGKGLEWIGVISYSGRTYDASWAKGRFTISKTSTTVDLKITSPTTEDTATYFCARVGDSYGYAYATVIFTYHFNLWGPGTLVTVSS
VL: DPVLTQTPSSASEPVGGTVTIKCQASESISSSLAWYQQKPGQRPKLLIYDASKLASGVPSRFKGSGSGTEFTLTISGVQCDDAATYYCQHGLSSGSTNRCAFGGGTKVEIKR
notes: also called DQN0177aa
Take B6: in experiment [3], the Kd turned out to be 3.67 nM, the koff came out at 0.00137 s⁻¹ and the kon worked out at 374000 M⁻¹ s⁻¹.

B7: DQN0089 (antibody, human IgG1, kappa, V domains shown)
VH: QEQVVEYGGDLVQPEGSLTLTCKASGLDFSSTYYMCWVRQAPGKGLEWIGCIYGGSSDSTYYASWAKGRFTISKTSPTTVTLQMTSLTAADTATHFCATYDYGAVGYDLWGPGTLVTVSS
VL: EVVVTQTPASVEVAVGGTVTIKCQASQNISPYLSWYQQKPGQPPKLLIYKASTLASGVSSRFKGSGSGTQFTLTISDLECADAATYYCQNNYGVSINYGHTFGGGTKVEIKR
B7: the “ratio [MFI (PE/FITC) without Cytochalasin D, Dynasore]/[MFI (PE/FITC) with Cytochalasin D, Dynasore] on Raji cells (invariant chain-mediated internalization)” value in experiment [6] was around 3.
